{"source": "patent US20050260177A1", "key": {"[1]": {"target": "Ra12-C888P fusion protein (human C888P fused to Mycobacterium tuberculosis Ra12)", "test": "ELISA, RC888P on plate, serum 1:1000, well 1"}, "[2]": {"target": "Ra12-C888P fusion protein (human C888P fused to Mycobacterium tuberculosis Ra12)", "test": "ELISA, RC888P on plate, serum 1:1000, well 2"}, "[3]": {"target": "Ra12-C888P fusion protein (human C888P fused to Mycobacterium tuberculosis Ra12)", "test": "ELISA, RC888P on plate, serum 1:2000, well 1"}, "[4]": {"target": "Ra12-C888P fusion protein (human C888P fused to Mycobacterium tuberculosis Ra12)", "test": "ELISA, RC888P on plate, serum 1:2000, well 2"}, "[5]": {"target": "Ra12-C888P fusion protein (human C888P fused to Mycobacterium tuberculosis Ra12)", "test": "ELISA, RC888P on plate, serum 1:4000, well 1"}, "[6]": {"target": "Ra12-C888P fusion protein (human C888P fused to Mycobacterium tuberculosis Ra12)", "test": "ELISA, RC888P on plate, serum 1:4000, well 2"}, "[7]": {"target": "Ra12-C888P fusion protein (human C888P fused to Mycobacterium tuberculosis Ra12)", "test": "ELISA, RC888P on plate, serum 1:8000, well 1"}, "[8]": {"target": "Ra12-C888P fusion protein (human C888P fused to Mycobacterium tuberculosis Ra12)", "test": "ELISA, RC888P on plate, serum 1:8000, well 2"}, "[9]": {"target": "Ra12-C888P fusion protein (human C888P fused to Mycobacterium tuberculosis Ra12)", "test": "ELISA, RC888P on plate, serum 1:16000, well 1"}, "[10]": {"target": "Ra12-C888P fusion protein (human C888P fused to Mycobacterium tuberculosis Ra12)", "test": "ELISA, RC888P on plate, serum 1:16000, well 2"}, "[11]": {"target": "Ra12-C888P fusion protein (human C888P fused to Mycobacterium tuberculosis Ra12)", "test": "ELISA, RC888P on plate, serum 1:32000, well 1"}, "[12]": {"target": "Ra12-C888P fusion protein (human C888P fused to Mycobacterium tuberculosis Ra12)", "test": "ELISA, RC888P on plate, serum 1:32000, well 2"}, "[13]": {"target": "Ra12-C888P fusion protein (human C888P fused to Mycobacterium tuberculosis Ra12)", "test": "ELISA, RC888P on plate, serum 1:64000, well 1"}, "[14]": {"target": "Ra12-C888P fusion protein (human C888P fused to Mycobacterium tuberculosis Ra12)", "test": "ELISA, RC888P on plate, serum 1:64000, well 2"}, "[15]": {"target": "Ra12-C888P fusion protein (human C888P fused to Mycobacterium tuberculosis Ra12)", "test": "ELISA, RC888P on plate, serum 1:128000, well 1"}, "[16]": {"target": "Ra12-C888P fusion protein (human C888P fused to Mycobacterium tuberculosis Ra12)", "test": "ELISA, RC888P on plate, serum 1:128000, well 2"}, "[17]": {"target": "Ra12-C888P fusion protein (human C888P fused to Mycobacterium tuberculosis Ra12)", "test": "ELISA, RC888P on plate, serum 1:256000, well 1"}, "[18]": {"target": "Ra12-C888P fusion protein (human C888P fused to Mycobacterium tuberculosis Ra12)", "test": "ELISA, RC888P on plate, serum 1:256000, well 2"}, "[19]": {"target": "Ra12-C888P fusion protein (human C888P fused to Mycobacterium tuberculosis Ra12)", "test": "ELISA, RC888P on plate, serum 1:512000, well 1"}, "[20]": {"target": "Ra12-C888P fusion protein (human C888P fused to Mycobacterium tuberculosis Ra12)", "test": "ELISA, RC888P on plate, serum 1:512000, well 2"}, "[21]": {"target": "Ra12-C888P fusion protein (human C888P fused to Mycobacterium tuberculosis Ra12)", "test": "ELISA, RC888P on plate, serum 1:1024000, well 1"}, "[22]": {"target": "Ra12-C888P fusion protein (human C888P fused to Mycobacterium tuberculosis Ra12)", "test": "ELISA, RC888P on plate, serum 1:1024000, well 2"}, "[23]": {"target": "Ra12-C888P fusion protein (human C888P fused to Mycobacterium tuberculosis Ra12)", "test": "ELISA, RC888P on plate, serum 1:1000, average of 2 wells"}, "[24]": {"target": "Ra12-C888P fusion protein (human C888P fused to Mycobacterium tuberculosis Ra12)", "test": "ELISA, RC888P on plate, serum 1:2000, average of 2 wells"}, "[25]": {"target": "Ra12-C888P fusion protein (human C888P fused to Mycobacterium tuberculosis Ra12)", "test": "ELISA, RC888P on plate, serum 1:4000, average of 2 wells"}, "[26]": {"target": "Ra12-C888P fusion protein (human C888P fused to Mycobacterium tuberculosis Ra12)", "test": "ELISA, RC888P on plate, serum 1:8000, average of 2 wells"}, "[27]": {"target": "Ra12-C888P fusion protein (human C888P fused to Mycobacterium tuberculosis Ra12)", "test": "ELISA, RC888P on plate, serum 1:16000, average of 2 wells"}, "[28]": {"target": "Ra12-C888P fusion protein (human C888P fused to Mycobacterium tuberculosis Ra12)", "test": "ELISA, RC888P on plate, serum 1:32000, average of 2 wells"}, "[29]": {"target": "Ra12-C888P fusion protein (human C888P fused to Mycobacterium tuberculosis Ra12)", "test": "ELISA, RC888P on plate, serum 1:64000, average of 2 wells"}, "[30]": {"target": "Ra12-C888P fusion protein (human C888P fused to Mycobacterium tuberculosis Ra12)", "test": "ELISA, RC888P on plate, serum 1:128000, average of 2 wells"}, "[31]": {"target": "Ra12-C888P fusion protein (human C888P fused to Mycobacterium tuberculosis Ra12)", "test": "ELISA, RC888P on plate, serum 1:256000, average of 2 wells"}, "[32]": {"target": "Ra12-C888P fusion protein (human C888P fused to Mycobacterium tuberculosis Ra12)", "test": "ELISA, RC888P on plate, serum 1:512000, average of 2 wells"}, "[33]": {"target": "Ra12-C888P fusion protein (human C888P fused to Mycobacterium tuberculosis Ra12)", "test": "ELISA, RC888P on plate, serum 1:1024000, average of 2 wells"}}, "data": [{"substance": "Preimmune sera (antibody)", "values": [{"measurement": "ELISA absorbance at 450 nm", "setting": "[1]", "value": 0.09, "unit": "OD450"}, {"measurement": "ELISA absorbance at 450 nm", "setting": "[2]", "value": 0.06, "unit": "OD450"}, {"measurement": "ELISA absorbance at 450 nm", "setting": "[3]", "value": 0.06, "unit": "OD450"}, {"measurement": "ELISA absorbance at 450 nm", "setting": "[4]", "value": 0.05, "unit": "OD450"}, {"measurement": "ELISA absorbance at 450 nm", "setting": "[5]", "value": 0.06, "unit": "OD450"}, {"measurement": "ELISA absorbance at 450 nm", "setting": "[6]", "value": 0.05, "unit": "OD450"}, {"measurement": "ELISA absorbance at 450 nm", "setting": "[7]", "value": 0.06, "unit": "OD450"}, {"measurement": "ELISA absorbance at 450 nm", "setting": "[8]", "value": 0.06, "unit": "OD450"}, {"measurement": "ELISA absorbance at 450 nm", "setting": "[9]", "value": 0.06, "unit": "OD450"}, {"measurement": "ELISA absorbance at 450 nm", "setting": "[10]", "value": 0.05, "unit": "OD450"}, {"measurement": "ELISA absorbance at 450 nm", "setting": "[11]", "value": 0.06, "unit": "OD450"}, {"measurement": "ELISA absorbance at 450 nm", "setting": "[12]", "value": 0.05, "unit": "OD450"}, {"measurement": "ELISA absorbance at 450 nm", "setting": "[13]", "value": 0.06, "unit": "OD450"}, {"measurement": "ELISA absorbance at 450 nm", "setting": "[14]", "value": 0.05, "unit": "OD450"}, {"measurement": "ELISA absorbance at 450 nm", "setting": "[15]", "value": 0.06, "unit": "OD450"}, {"measurement": "ELISA absorbance at 450 nm", "setting": "[16]", "value": 0.06, "unit": "OD450"}, {"measurement": "ELISA absorbance at 450 nm", "setting": "[17]", "value": 0.06, "unit": "OD450"}, {"measurement": "ELISA absorbance at 450 nm", "setting": "[18]", "value": 0.06, "unit": "OD450"}, {"measurement": "ELISA absorbance at 450 nm", "setting": "[19]", "value": 0.06, "unit": "OD450"}, {"measurement": "ELISA absorbance at 450 nm", "setting": "[20]", "value": 0.05, "unit": "OD450"}, {"measurement": "ELISA absorbance at 450 nm", "setting": "[21]", "value": 0.06, "unit": "OD450"}, {"measurement": "ELISA absorbance at 450 nm", "setting": "[22]", "value": 0.06, "unit": "OD450"}, {"measurement": "ELISA absorbance at 450 nm", "setting": "[23]", "value": 0.07, "unit": "OD450"}, {"measurement": "ELISA absorbance at 450 nm", "setting": "[24]", "value": 0.06, "unit": "OD450"}, {"measurement": "ELISA absorbance at 450 nm", "setting": "[25]", "value": 0.06, "unit": "OD450"}, {"measurement": "ELISA absorbance at 450 nm", "setting": "[26]", "value": 0.06, "unit": "OD450"}, {"measurement": "ELISA absorbance at 450 nm", "setting": "[27]", "value": 0.06, "unit": "OD450"}, {"measurement": "ELISA absorbance at 450 nm", "setting": "[28]", "value": 0.06, "unit": "OD450"}, {"measurement": "ELISA absorbance at 450 nm", "setting": "[29]", "value": 0.06, "unit": "OD450"}, {"measurement": "ELISA absorbance at 450 nm", "setting": "[30]", "value": 0.06, "unit": "OD450"}, {"measurement": "ELISA absorbance at 450 nm", "setting": "[31]", "value": 0.06, "unit": "OD450"}, {"measurement": "ELISA absorbance at 450 nm", "setting": "[32]", "value": 0.06, "unit": "OD450"}, {"measurement": "ELISA absorbance at 450 nm", "setting": "[33]", "value": 0.06, "unit": "OD450"}]}]}
